The data set can be described thus: soluble on expression in E. coli; label from the status in PepcDB or PDB records.
Take “GPALVKQSHPKNPNDKHRSKKCKDPKPRVKKLKYHQYIPPDQKGEKNEPQMDSNYARLLQQQQLFLQLQILSQQKQHYNYQTILPAPFKPLNDKNSNSGNSALNNATPNTPRQNTSTPVRKPGPLPSSLDDLKVSELKTELKLRGLPVSGTKPDLIERLKPYQEVNSSGLAAGGIVAVSSSAIVTSNPEVTVALPVTTLHNTVTSSVSTLKAELPPTGTSNATRVENVHSPLPISPSPSEQSSLSTDDTNMADTFTEIMTMMSPSQFLSSSPLRMTNNEDSLSPTSSTLSNLELDAAEKDRKLQEKEKQIEELKRKLEQEQKLVEVLKMQLEVEKRGQQQRPLEAQPSAPGHSVKSDQKHGSLGSSIKDEASLPDCSSSRQPIPVASHAVGQPVSTGGQTLVAKKAVVIKQEVPVGQAEQQSVVSQFYVSSQGQPPPAVVAQPQALLTTQTAQLLLPVSIQGSSVTSVQLPVGSLKLQTSPQAGMQTQPQIATAAQIPTAALASGLAPTVPQTQDTFPQHVLSQPQQVRKVFTNSASSNTVLPYQRHPAPAVQQPFINKASNSVLQSRNAPLPSLQNGPNTPNKPSSPPPPQQFVVQHSLFGSPVAKTKDPPRYEEAIKQTRSTQAPLPEISNAHSQQMDDLFDILIKSGEISLPIKEEPSPISKMRPVTASITTMPVNTVVSRPPPQVQMAPPVSLEPMGSLSASLENQLEAFLDGTLPSANEIPPLQSSSEDREPFSLIEDLQNDLLSHSGMLDHSHSPMETSETQFAAGTPCLSLDLSDSNLDNMEWLDITMPNSSSGLTPLSTTAPSMFSADFLDPQDLPLPWD”: the “soluble on expression in E. coli” value is recorded as “soluble”.

Regarding “MEFVVEEGKLVNEDCSTLVLPALSIGNVGQLAVDLLVSSTGAERVGYLDDPNLLPCVGNDAYGPLPCGEIALPLEVYESSSIATTLAQQRSPVAKGMMIKFAENIANFAASSGKKHIIVLSSLDFQRLHNLDMSRGPQVYYLSNAESDGRDDHCERLGFGRLHEYDSEGRCWKYLSSVFEKNSVEELALPSEDELEDIDYYPSLPFAALFSAFKARGLKMTCLLCYCSEGDNIPEAFLLAEASSKLMGLTPDKFHGEEGGKWQIPYSWKSMYGAPPDMSMF”, the “soluble on expression in E. coli” value was “soluble”. For “MGAAGDAAIGRESRELMSAANVGRTISRIAHQIIEKTALDDPVGPDAPRVVLLGIPTRGVTLANRLAGNITEYSGIHVGHGALDITLYRDDLMIKPPRPLASTSIPAGGIDDALVILVDDVLYSGRSVRSALDALRDVGRPRAVQLAVLVDRGHRELPLRADYVGKNVPTSRSESVHVRLREHDGRDGVVISRGSHHHHHH”, the “soluble on expression in E. coli” value is listed as “soluble”.

Take “MCGRIAQKSAPEDYVEILWPNARLIFDDVAGPRYNIPPGTRPLTMHRLVDQAEALARLPWGYKPHGSRFFMVNAKLETIERHGWPWKLMIGVGRILVPADGWYEWRALDSGPKPAKQSYYIHGDAPLLFAGLSAWRRGAELDEAHGFAIVTNDALGGMVDVHDRRPVALPPELAREWVDPATPVARAKEILRAGLPETAFSWYPVRQEVGSSKYQLPDAVDPLLEHHHHHH”: the “soluble on expression in E. coli” value is reported as “not soluble”. As for “KTNTATVKVLPISMSDEGDSFLVKDSLGENKIPKNPSKVVILDLGILDTFDALKLNDKVVGVPAKNLPKYLQQFKNKPSVGGVQQVDFEAINALKPDLIIISGRQSKFYDKLKEIAPTLFVGLDNANFLSSFENNVLSVAKLYGLEKEALEKISDIKNEIEKAKSIVDEDKKALIILTNSNKISAFGPQSRFGIIHDVLGINAVDENIKVGTHGKSINSEFILEKNPDYIFVVDRNVILGNKERAQGILDNALVAKTKAAQNKKIIYLDPEYWYLASGNGLESLKTMILEIKNAVK”, the “soluble on expression in E. coli” value is listed as “soluble”. The entry for “VSTLSKEQVKEIIKGNNFQSVADVSAYLRDIFKDIIQELLEAELEAKLGYAKDDVENKNTDNSRNGYSPKTIKSEFREVEIQVPRDRKGEFKPQIIPKYQRNVSGIEEKVIALYARGMSTRDISEQIEELYGFSLSPEMVSKITDRIAPEIKEWQQRPLEPIYTFVFMDEIH” is “soluble”; for “MIFPVARYALRWLRRPEDRAFSRAAMEMALRGVRKVLCVAEKNDAAKGIADLLSNGRMRRREGLSKFNKIYEFDYHLYGQNVTMVMTSVSGHLLAHDFQMQFRKWQSCNPLVLFEAEIEKYCPENFVDIKKTLERETRQCQALVIWTDCDREGENIGFEIIHVCKAVKPNLQVLRARFSEITPHAVRTACENLTEPDQRVSDAVDVRQELDLRIGAAFTRFQTLRLQRIFPEVLAEQLISYGSCQFPTLGFVVERFKAIQAFVPEIFHRIKVTHDHKDGIVEFNWKRHRLFNHTACLVLYQLCVEDPMATVVEVRSKPKSKWRPQALDTVELEKLASRKLRINAKETMRIAEKLYTQGYISYPRTETNIFPRDLNLTVLVEQQTPDPRWGAFAQSILERGGPTPRNGNKSDQAHPPIHPTKYTNNLQGDEQRLYEFIVRHFLACCSQDAQGQETTVEIDIAQERFVAHGLMILARNYLDVYPYDHWSDKILPVYEQGSHFQPSTVEMVDGETSPPKLLTEADLIALMEKHGIGTDATHAEHIETIKARMYVGLTPDKRFLPGHLGMGLVEGYDSMGYEMSKPDLRAELEADLKLICDGKKDKFVVLRQQVQKYKQVFIEAVAKAKKLDEALAQYFGNGTELAQQEDIYPAMPEPIRKCPQCNKDMVLKTKKNGGFYLSCMGFPECRSAVWLPDSVLEASRDSSVCPVCQPHPVYRLKLKFKRGSLPPTMPLEFVCCIGGCDDTLREILDLRFSGGPPRASQPSGRLQANQSLNRMDNSQHPQPADSRQTGSSKALAQTLPPPTAAGESNSVTCNCGQEAVLLTVRKEGPNRGRQFFKCNGGSCNFFLWADSPNPGAGGPPALAYRPLGASLGCPPGPGIHLGGFGNPGDGSGSGTSCLCSQPSVTRTVQKDGPNKGRQFHTCAKPREQQCGFFQWVDENTAPGTSGAPSWTGDRGRTLESEARSKRPRASSSDMGSTAKKPRKCSLCHQPGHTRPFCPQNR” it is “soluble”; for “MARLTVHTLETAPEAAKPRVEAVPKNNGFIPNLIGVLANAPEALAFYQEVGKLNAANSLTAGEVEVIRIIAVRTNQCSFCVAGHTKLATLKKLLSEQSLNAARALAAGKSDDAKLGALAAFTQAVMAKKGAVSDDELNAFLEAGYNRQQAVEVVMGVALATLCNYANNLAQTEINPKLQAYA” it is “not soluble”. The same measure for “MYPVDLHMHTVASTHAYSTLSDYIAQAKQKGIKLFAITDHGPDMEDAPHHWHFINMRIWPRVVDGVGILRGIEANIKNVDGEIDCSGKMFDSLDLIIAGFHEPVFAPHDKATNTQAMIATIASGNVHIISHPGNPKYEIDVKAVAEAAAKHQVALEINNSSFLHSRKGSEDNCREVAAAVRDAGGWVALGSDSHTAFTMGEFEECLKILDAVDFPPERILNVSPRRLLNFLESRGMAPIAEFADL”: “soluble”; for “MKPYDLSEAVAVVTGGSSGIGLATVELLLEAGAAVAFCARDGERLRAAESALRQRFPGARLFASVCDVLDALQVRAFAEACERTLGCASILVNNAGQGRVSTFAETTDEAWSEELQLKFFSVIHPVRAFLPQLESRADAAIVCVNSLLASQPEPHMVATSAARAGVKNLVRSMAFEFAPKGVRVNGILIGLVESGQWRRRFEAREERELDWAQWTAQLARNKQIPLGRLGKPIEAARAILFLASPLSAYTTGSHIDVSGGLSRHA”: “soluble”. The entry for “MSSEERSRQPSTVSTFDLEPNPFEQSFASSKKALSLPGTISHPSLPKELSRNNSTSTITQHSQRSTHSLNSIPEENGNSTVTDNSNHNDVKKDSPSFLPGQQRPTIISPPILTPGGSKRLPPLLLSPSILYQANSTTNPSQNSHSVSVSNSNPSAIGVSSTSGSLYPNSSSPSGTSLIRQPRNSNVTTSNSGNGFPTNDSQMPGFLLNLSKSGLTPNESNIRTGLTPGILTQSYNYPVLPSINKNTITGSKNVNKSVTVNGSIENHPHVNIMHPTVNGTPLTPGLSSLLNLPSTGVLANPVFKSTPTTNTTDGTVNNSISNSNFSPNTSTKAAVKMDNPAEFNAIEHSAHNHKENENLTTQIENNDQFNNKTRKRKRRMSSTSSTSKASRKNSISRKNSAVTTAPAQKDDVENNKISNNVTLDENEEQERKRKEFLERNRVAASKFRKRKKEYIKKIENDLQFYESEYDDLTQVIGKLCGIIPSSSSNSQFNVNVSTPSSSSPPSTSLIALLESSISRSDYSSAMSVLSNMKQLICETNFYRRGGKNPRDDMDGQEDSFNKDTNVVKSENAGYPSVNSRPIILDKKYSLNSGANISKSNTTTNNVGNSAQNIINSCYSVTNPLVINANSDTHDTNKHDVLSTLPHNN” is “soluble”; for “MKPSQWTLRWVTLCGCGMLAASAAAVELPGTVQPSQLDERFKPRSEPQAKPEAPLVVPKQVAPQGSEQIRFKLREIRIEGNTRYDKAVLESYYQHMLGEQVSLAELVDLANRLTAKYRQDGFLLTQVVVPEQSIEGGKVRLQVIEGYLEHVQIKGTVDGPRVRVEELLAPLTEKRPLDADTLERGLLLVGDLPGVNVQSVLSPGQALGSSNLDVALQQQRYEGFVSLDNRGSHYTDPTTLAFGATEFSRLGFYEQIDVLGAISPFSDATRYIQLRGTLPLGGMFAGDTLQIMGSYSKVNPDIPDSVFPFDSVSKSTEGSISYNHPFIRSRSQNLSGGLALQWKDTETRLRDFASDASNPGRDHVRVFQQRLTYDWVDRWMGINLAEVRNNIGLDMWGATKKDDERRSREVADGRFVYLNGNIGRLQGLGGPWSVYGELQWQYSFDPLLPSERFGVGGSGIGRGFAPGNITGDRGFALKLEPRYGQAVGYSWLRSYQAYAFYDWGKTYNLDVDDDEQQKLGSIGAGVRFNLTDQLSFNPEIARQVIGEPADQRDGKRETRVLFNVVARF” it is “not soluble”. Consider “VVGGTDADEGEWPWQVSLHALGQGHICGASLISPNWLVSAAHCYIDDRGFRYSDPTQWTAFLGLHDQSQRSAPGVQERRLKRIISHPFFNDFTFDYDIALLELEKPAEYSSMVRPISLPDASHVFPAGKAIWVTGWGHTQYGGTGALILQKGEIRVINQTTCENLLPQQITPRMMCVGFLSGGVDSCQGDSGGPLSSVEADGRIFQAGVVSWGDGCAQRNKPGVYTRLPLFRDWIKENTGV”, for which the “soluble on expression in E. coli” value is on record as “soluble”.

Take “MEMKQISETTLKITISMDDLEERGMELKDFLIPQEKTEEFFYSVMDELDLPDNFKDSGMLSFRVTPRKDRLDVFVTKSEINKDINLEDLAEFGDMSQMTPEDFFKSLEQSMREKGDVKAHEKLEKIEEIMEDVVEATLANQSEAADPSTNHESEPLDYVHYVLDFSTITEAVAFAKTIDFSIEASELYKGSNCYHMTILLDVQQQPSYFANVMYARLIEHANPGSKTRAYLQEHGLQLMLDGAVEQLQKIELG”: the “soluble on expression in E. coli” value is “not soluble”. The entry for “MAHHHHHHMHNVYNIFRQGQKRTYMTTALDRKIREVPYLSRYVILEKLKKKPRYMSECVGTPRRAYDYNTFDKIRYKPTFNPYVHLNKDKKYRLDNWKSRDHENFDPLKCYVRGSRKSYDIPYAILPTKDELGMFHPPILSGRYKADIEKQYYMHDLPWVWHKNFYTGTSHFCDNMVIGKKKWYRKEQQNEKMKESMKKINNLVLEYREECKNKKRYNFLEKVVNTLGDEIAHKYIRKIKNIYL” is “not soluble”; for “MTEPLTETPELSAKYAWFFDLDGTLAEIKPHPDQVVVPDNILQGLQLLATASDGALALISGRSMVELDALAKPYRFPLAGVHGAERRDINGKTHIVHLPDAIARDISVQLHTVIAQYPGAELEAKGMAFALHYRQAPQHEDALMTLAQRITQIWPQMALQQGKCVVEIKPRGTSKGEAIAAFMQEAPFIGRTPVFLGDDLTDESGFAVVNRLGGMSVKIGTGATQASWRLAGVPDVWSWLEMITTALQQKRENNRSDDYESFSRSILEHHHHHH” it is “not soluble”. The same measure for “MKTLFLQYPACSTCQKAKKWLIENNIEYTNRLIVDDNPTVEELKAWIPLSGLPVKKFFNTSGVVYKELKLSSKLPTMTEEEQIALLATNGKLVKRPLVVTERFVLVGFKPEEWEKL”: “not soluble”.

Values taken from the DeepSol protein solubility set.
